Where a chain is given by its changes, count along the chain named. Names and notes keep the numbering of the source.
T1: TNFR1 (Homo sapiens, UniProt P19438)
T1 chain: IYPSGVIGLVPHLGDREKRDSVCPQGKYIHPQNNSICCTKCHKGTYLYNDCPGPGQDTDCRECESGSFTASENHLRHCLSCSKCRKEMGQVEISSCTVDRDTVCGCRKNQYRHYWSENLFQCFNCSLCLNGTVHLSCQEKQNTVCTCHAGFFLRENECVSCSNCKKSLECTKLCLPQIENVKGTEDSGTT

B1: K68L (designed binder)
chain: SMEEEVEKAAKEYEKKKKEAIEKHLEKLKAKDKEAAERFLKELEEAAKEYAKDEAKTMSEEEAKRRALKYKEKVLLSELSEEEQKEIKEAEEKLVRTILKYVEEAAK
B2: K100Q (designed binder)
chain: B1 chain with L68K, K100Q
B3: E4N (designed binder)
chain: B1 chain with E4N, L68K
B4: E82N (designed binder)
chain: B1 chain with L68K, E82N
B5: K71F (designed binder)
chain: B1 chain with L68K, K71F
B6: E104G (designed binder)
chain: B1 chain with L68K, E104G
B7: E19F (designed binder)
chain: B1 chain with E19F, L68K
B8: E14K (designed binder)
chain: B1 chain with E14K, L68K
B9: K16T (designed binder)
chain: B1 chain with K16T, L68K
B10: K16R (designed binder)
chain: B1 chain with K16R, L68K
B11: E49R (designed binder)
chain: B1 chain with E49R, L68K
B12: K73I (designed binder)
chain: B1 chain with L68K, K73I
B13: A30D (designed binder)
chain: B1 chain with A30D, L68K
B14: K23I (designed binder)
chain: B1 chain with K23I, L68K
B15: E19P (designed binder)
chain: B1 chain with E19P, L68K
B16: E4S (designed binder)
chain: B1 chain with E4S, L68K
B17: I98K (designed binder)
chain: B1 chain with L68K, I98K
B18: E34W (designed binder)
chain: B1 chain with E34W, L68K
B19: R66S (designed binder)
chain: B1 chain with R66S, L68K
B20: A105V (designed binder)
chain: B1 chain with L68K, A105V
B21: K17M (designed binder)
chain: B1 chain with K17M, L68K
B22: A106Y (designed binder)
chain: B1 chain with L68K, A106Y
B23: E45G (designed binder)
chain: B1 chain with E45G, L68K
B24: K52M (designed binder)
chain: B1 chain with K52M, L68K
B25: E54N (designed binder)
chain: B1 chain with E54N, L68K
B26: T97G (designed binder)
chain: B1 chain with L68K, T97G
B27: K69G (designed binder)
chain: B1 chain with L68K, K69G
B28: E14P (designed binder)
chain: B1 chain with E14P, L68K
B29: A55F (designed binder)
chain: B1 chain with A55F, L68K
B30: E4G (designed binder)
chain: B1 chain with E4G, L68K
B31: K107D (designed binder)
chain: B1 chain with L68K, K107D
B32: E26N (designed binder)
chain: B1 chain with E26N, L68K
B33: E19K (designed binder)
chain: B1 chain with E19K, L68K
B34: K100P (designed binder)
chain: B1 chain with L68K, K100P
B35: D32V (designed binder)
chain: B1 chain with D32V, L68K
B36: L79G (designed binder)
chain: B1 chain with L68K, L79G
B37: E86I (designed binder)
chain: B1 chain with L68K, E86I
B38: I87A (designed binder)
chain: B1 chain with L68K, I87A
B39: I98P (designed binder)
chain: B1 chain with L68K, I98P
B40: E78F (designed binder)
chain: B1 chain with L68K, E78F
B41: K41W (designed binder)
chain: B1 chain with K41W, L68K
B42: K41Q (designed binder)
chain: B1 chain with K41Q, L68K
B43: K11H (designed binder)
chain: B1 chain with K11H, L68K
B44: A106D (designed binder)
chain: B1 chain with L68K, A106D
B45: K52P (designed binder)
chain: B1 chain with K52P, L68K
B46: L28R (designed binder)
chain: B1 chain with L28R, L68K
B47: L40K (designed binder)
chain: B1 chain with L40K, L68K
B48: K68N (designed binder)
chain: B1 chain with L68N
B49: V74R (designed binder)
chain: B1 chain with L68K, V74R
B50: T57R (designed binder)
chain: B1 chain with T57R, L68K
B51: L75N (designed binder)
chain: B1 chain with L68K, L75N
B52: F39V (designed binder)
chain: B1 chain with F39V, L68K
B53: A63S (designed binder)
chain: B1 chain with A63S, L68K
B54: E22D (designed binder)
chain: B1 chain with E22D, L68K
B55: E19N (designed binder)
chain: B1 chain with E19N, L68K

Target: T1, TNFR1
Experiment: yeast display SC50

Binder	apparent Kd (screen) [nM]
B1	2.73
B2	0.539
B3	0.539
B4	1.86
B5	2.48
B6	0.446
B7	0.446
B8	3
B9	1.05
B10	1.4
B11	0.956
B12	2.73
B13	1.4
B14	0.539
B15	22.2
B16	0.539
B17	4.83
B18	0.446
B19	7.07
B20	1.16
B21	0.79
B22	2.73
B23	2.05
B24	0.446
B25	12.5
B26	1.86
B27	2.25
B28	11.4

Binder	apparent Kd (screen) [nM]
B29	11.4
B30	0.718
B31	0.0498
B32	0.593
B33	0.49
B34	3
B35	7.07
B36	2.48
B37	1.69
B38	13.8
B39	1.86
B40	0.49
B41	0.446
B42	0.718
B43	0.956
B44	0.79
B45	4.39
B46	1.86
B47	0.446
B48	0.653
B49	5.31
B50	0.49
B51	0.869
B52	4.39
B53	3.99
B54	0.49
B55	0.446

Reference: paper PMC12416549 (2024)
